Data on three compounds can be found in article PMC4607889, “Modular Design of the Selectivity Filter Pore Loop in a Novel Family of Prokaryotic ‘Inward Rectifier’ (NirBac) channels” (Scientific Reports, 2015).

For assay [1], the target named is NirBac1.1 (Anaeromyxobacter dehalogenans 2CP-C). As to the kind of experiment: SEC + native gel or EMSA; purified channel in detergent, non-denaturing conditions; Superdex200; oligomeric state (Supplementary Figure S2B,C). On the technique in general: A gel shift assay detects complexes by their altered migration in electrophoresis.
The target in assay [2] is T1, NirBac1.2 (Anaeromyxobacter sp. Fw109-5, UniProt A7HIG5).
T1 sequence (A7HIG5 1-299): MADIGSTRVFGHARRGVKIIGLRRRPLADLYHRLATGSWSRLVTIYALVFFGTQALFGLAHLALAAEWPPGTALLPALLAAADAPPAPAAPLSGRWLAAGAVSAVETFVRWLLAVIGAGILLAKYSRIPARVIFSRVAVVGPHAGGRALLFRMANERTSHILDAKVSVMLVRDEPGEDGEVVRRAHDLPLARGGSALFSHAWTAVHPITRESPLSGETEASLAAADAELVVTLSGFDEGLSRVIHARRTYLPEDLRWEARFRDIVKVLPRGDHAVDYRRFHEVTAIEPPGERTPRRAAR
As to the kind of experiment: […]+ uptake into proteoliposomes. The class given is biochemical. Conditions: POPG as part of liposome lipid, 25% vs 50% of total; Na+ driven; activator.

Assay [3] addresses T2, NirBac1.1 (Anaeromyxobacter dehalogenans, UniProt Q2IH88).
T2 sequence (Q2IH88 1-305): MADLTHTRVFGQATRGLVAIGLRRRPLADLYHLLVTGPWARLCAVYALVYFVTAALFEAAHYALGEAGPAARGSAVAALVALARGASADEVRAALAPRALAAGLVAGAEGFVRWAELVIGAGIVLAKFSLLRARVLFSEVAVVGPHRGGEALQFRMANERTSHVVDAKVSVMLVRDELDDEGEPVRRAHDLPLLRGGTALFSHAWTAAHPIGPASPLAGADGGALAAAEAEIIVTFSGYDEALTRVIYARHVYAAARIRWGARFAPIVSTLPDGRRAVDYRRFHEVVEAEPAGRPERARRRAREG
As to the kind of experiment: […]+ uptake into proteoliposomes. The class given is biochemical. Conditions: POPG as part of liposome lipid, 25% vs 50% of total; Na+ driven; activator.

Assay [4] has as its target NirBac1.2 (Anaeromyxobacter sp. Fw109-5). As to the kind of experiment: SEC + native gel or EMSA; purified channel in detergent, non-denaturing conditions; Superdex200; oligomeric state (Supplementary Figure S2B,C).

In general, stoichiometry N refers to the number of molecules, sites or subunits per partner or assembly. In the case of NirBac1.1 (natural protein), the stoichiometry N in assay [1] worked out at 4. As for `CCCCCCCC/C=C\CCCCCCCC(=O)O[C@H](COC(=O)CCCCCCCCCCCCCCC)COP(=O)(O)OCC(O)CO` (stereo partly shown) [POPG], the “fold flux increase, 25% to 50% POPG” value in assay [2] and in assay [3] was greater than 5 fold each time.

Consider NirBac1.2 (natural protein), for which, in assay [4], the stoichiometry N was 4.
